{"source": "the Human Domainome abundance scans (Beltran et al. 2025)", "parents": {"B1": {"name": "Friend leukemia integration 1 transcription factor, residues 116 to 197; numbered along this chain, Q01543 (parent)", "chain": "NMTTNERRVIVPADPTLWTQEHVRQWLEWAIKEYSLMEIDTSFFQNMDGKELCKMNKEDFLRATTLYNTEVLLSHLSYLRES"}}, "note": "± gives the uncertainty stated by the source."}
{"variants_of": "B1", "test": "abundance fitness (aPCA) (normalised: wild type 0, dead -1); higher = more abundant; growth selection in yeast, the domain comes from the species named", "settings": "Homo sapiens"}
{"variant": "NMTTNERRVIVPADPTLWRQEHVRQWLEWAIKEYSLMEIDTSFFQNMDGKELCKMNKEDFLRATTLYNTEVLLSHLSYLRES", "note": "[T19R]", "abundance fitness": "-0.12 ± 0.077"}
{"variant": "NMTTNERRVIVPADPTLWSQEHVRQWLEWAIKEYSLMEIDTSFFQNMDGKELCKMNKEDFLRATTLYNTEVLLSHLSYLRES", "note": "[T19S]", "abundance fitness": "-0.113 ± 0.13"}
{"variant": "NMTTNERRVIVPADPTLWVQEHVRQWLEWAIKEYSLMEIDTSFFQNMDGKELCKMNKEDFLRATTLYNTEVLLSHLSYLRES", "note": "[T19V]", "abundance fitness": "-0.351 ± 0.12"}
{"variant": "NMTTNERRVIVPADPTLWWQEHVRQWLEWAIKEYSLMEIDTSFFQNMDGKELCKMNKEDFLRATTLYNTEVLLSHLSYLRES", "note": "[T19W]", "abundance fitness": "-0.796 ± 0.16"}
{"variant": "NMTTNERRVIVPADPTLWTAEHVRQWLEWAIKEYSLMEIDTSFFQNMDGKELCKMNKEDFLRATTLYNTEVLLSHLSYLRES", "note": "[Q20A]", "abundance fitness": "-0.126 ± 0.11"}
{"variant": "NMTTNERRVIVPADPTLWTCEHVRQWLEWAIKEYSLMEIDTSFFQNMDGKELCKMNKEDFLRATTLYNTEVLLSHLSYLRES", "note": "[Q20C]", "abundance fitness": "-0.176 ± 0.29"}
{"variant": "NMTTNERRVIVPADPTLWTDEHVRQWLEWAIKEYSLMEIDTSFFQNMDGKELCKMNKEDFLRATTLYNTEVLLSHLSYLRES", "note": "[Q20D]", "abundance fitness": "-0.054 ± 0.18"}
{"variant": "NMTTNERRVIVPADPTLWTEEHVRQWLEWAIKEYSLMEIDTSFFQNMDGKELCKMNKEDFLRATTLYNTEVLLSHLSYLRES", "note": "[Q20E]", "abundance fitness": "-0.195 ± 0.14"}
{"variant": "NMTTNERRVIVPADPTLWTGEHVRQWLEWAIKEYSLMEIDTSFFQNMDGKELCKMNKEDFLRATTLYNTEVLLSHLSYLRES", "note": "[Q20G]", "abundance fitness": "-0.057 ± 0.12"}
{"variant": "NMTTNERRVIVPADPTLWTHEHVRQWLEWAIKEYSLMEIDTSFFQNMDGKELCKMNKEDFLRATTLYNTEVLLSHLSYLRES", "note": "[Q20H]", "abundance fitness": "0.018 ± 0.35"}
{"variant": "NMTTNERRVIVPADPTLWTKEHVRQWLEWAIKEYSLMEIDTSFFQNMDGKELCKMNKEDFLRATTLYNTEVLLSHLSYLRES", "note": "[Q20K]", "abundance fitness": "0.138 ± 0.19"}
{"variant": "NMTTNERRVIVPADPTLWTLEHVRQWLEWAIKEYSLMEIDTSFFQNMDGKELCKMNKEDFLRATTLYNTEVLLSHLSYLRES", "note": "[Q20L]", "abundance fitness": "-0.289 ± 0.08"}
{"variant": "NMTTNERRVIVPADPTLWTMEHVRQWLEWAIKEYSLMEIDTSFFQNMDGKELCKMNKEDFLRATTLYNTEVLLSHLSYLRES", "note": "[Q20M]", "abundance fitness": "0.046 ± 0.099"}
{"variant": "NMTTNERRVIVPADPTLWTNEHVRQWLEWAIKEYSLMEIDTSFFQNMDGKELCKMNKEDFLRATTLYNTEVLLSHLSYLRES", "note": "[Q20N]", "abundance fitness": "0.218 ± 0.29"}
{"variant": "NMTTNERRVIVPADPTLWTPEHVRQWLEWAIKEYSLMEIDTSFFQNMDGKELCKMNKEDFLRATTLYNTEVLLSHLSYLRES", "note": "[Q20P]", "abundance fitness": "-0.454 ± 0.21"}
{"variant": "NMTTNERRVIVPADPTLWTREHVRQWLEWAIKEYSLMEIDTSFFQNMDGKELCKMNKEDFLRATTLYNTEVLLSHLSYLRES", "note": "[Q20R]", "abundance fitness": "-0.077 ± 0.084"}
{"variant": "NMTTNERRVIVPADPTLWTSEHVRQWLEWAIKEYSLMEIDTSFFQNMDGKELCKMNKEDFLRATTLYNTEVLLSHLSYLRES", "note": "[Q20S]", "abundance fitness": "0.047 ± 0.052"}
{"variant": "NMTTNERRVIVPADPTLWTTEHVRQWLEWAIKEYSLMEIDTSFFQNMDGKELCKMNKEDFLRATTLYNTEVLLSHLSYLRES", "note": "[Q20T]", "abundance fitness": "-0.029 ± 0.06"}
{"variant": "NMTTNERRVIVPADPTLWTVEHVRQWLEWAIKEYSLMEIDTSFFQNMDGKELCKMNKEDFLRATTLYNTEVLLSHLSYLRES", "note": "[Q20V]", "abundance fitness": "-0.137 ± 0.078"}
{"variant": "NMTTNERRVIVPADPTLWTWEHVRQWLEWAIKEYSLMEIDTSFFQNMDGKELCKMNKEDFLRATTLYNTEVLLSHLSYLRES", "note": "[Q20W]", "abundance fitness": "-0.123 ± 0.11"}
{"variant": "NMTTNERRVIVPADPTLWTYEHVRQWLEWAIKEYSLMEIDTSFFQNMDGKELCKMNKEDFLRATTLYNTEVLLSHLSYLRES", "note": "[Q20Y]", "abundance fitness": "-0.109 ± 0.4"}
{"variant": "NMTTNERRVIVPADPTLWTQAHVRQWLEWAIKEYSLMEIDTSFFQNMDGKELCKMNKEDFLRATTLYNTEVLLSHLSYLRES", "note": "[E21A]", "abundance fitness": "0.017 ± 0.079"}
{"variant": "NMTTNERRVIVPADPTLWTQCHVRQWLEWAIKEYSLMEIDTSFFQNMDGKELCKMNKEDFLRATTLYNTEVLLSHLSYLRES", "note": "[E21C]", "abundance fitness": "-0.371 ± 0.22"}
{"variant": "NMTTNERRVIVPADPTLWTQDHVRQWLEWAIKEYSLMEIDTSFFQNMDGKELCKMNKEDFLRATTLYNTEVLLSHLSYLRES", "note": "[E21D]", "abundance fitness": "-0.084 ± 0.24"}
{"variant": "NMTTNERRVIVPADPTLWTQGHVRQWLEWAIKEYSLMEIDTSFFQNMDGKELCKMNKEDFLRATTLYNTEVLLSHLSYLRES", "note": "[E21G]", "abundance fitness": "-0.151 ± 0.094"}
{"variant": "NMTTNERRVIVPADPTLWTQIHVRQWLEWAIKEYSLMEIDTSFFQNMDGKELCKMNKEDFLRATTLYNTEVLLSHLSYLRES", "note": "[E21I]", "abundance fitness": "-0.474 ± 0.32"}
{"variant": "NMTTNERRVIVPADPTLWTQKHVRQWLEWAIKEYSLMEIDTSFFQNMDGKELCKMNKEDFLRATTLYNTEVLLSHLSYLRES", "note": "[E21K]", "abundance fitness": "-0.243 ± 0.14"}
{"variant": "NMTTNERRVIVPADPTLWTQLHVRQWLEWAIKEYSLMEIDTSFFQNMDGKELCKMNKEDFLRATTLYNTEVLLSHLSYLRES", "note": "[E21L]", "abundance fitness": "-0.096 ± 0.073"}
{"variant": "NMTTNERRVIVPADPTLWTQMHVRQWLEWAIKEYSLMEIDTSFFQNMDGKELCKMNKEDFLRATTLYNTEVLLSHLSYLRES", "note": "[E21M]", "abundance fitness": "-0.045 ± 0.1"}
{"variant": "NMTTNERRVIVPADPTLWTQNHVRQWLEWAIKEYSLMEIDTSFFQNMDGKELCKMNKEDFLRATTLYNTEVLLSHLSYLRES", "note": "[E21N]", "abundance fitness": "-0.091 ± 0.19"}
{"variant": "NMTTNERRVIVPADPTLWTQQHVRQWLEWAIKEYSLMEIDTSFFQNMDGKELCKMNKEDFLRATTLYNTEVLLSHLSYLRES", "note": "[E21Q]", "abundance fitness": "0.066 ± 0.11"}
{"variant": "NMTTNERRVIVPADPTLWTQSHVRQWLEWAIKEYSLMEIDTSFFQNMDGKELCKMNKEDFLRATTLYNTEVLLSHLSYLRES", "note": "[E21S]", "abundance fitness": "-0.086 ± 0.095"}
{"variant": "NMTTNERRVIVPADPTLWTQTHVRQWLEWAIKEYSLMEIDTSFFQNMDGKELCKMNKEDFLRATTLYNTEVLLSHLSYLRES", "note": "[E21T]", "abundance fitness": "-0.131 ± 0.14"}
{"variant": "NMTTNERRVIVPADPTLWTQVHVRQWLEWAIKEYSLMEIDTSFFQNMDGKELCKMNKEDFLRATTLYNTEVLLSHLSYLRES", "note": "[E21V]", "abundance fitness": "-0.111 ± 0.11"}
